Experiments:
HeLa Kyoto [1] = assay: solubility change mitosis vs G1/S (difference of NP-40 vs SDS log2 ratios) (log2 ratio difference); higher = more soluble in mitosis
HeLa Kyoto [2] = assay: solubility in G1/S (NP-40 vs SDS abundance) (log2 ratio); higher = more soluble; conditions: cell cycle stage: G1/S
HeLa Kyoto [3] = assay: melting temperature (median over replicates), in situ; higher = more thermally stable
HeLa Kyoto [4] = assay: thermal stability score vs G1/S (z-score of summed log2 fold changes over temperatures); higher = more thermally stable than in G1/S
[5] = cell cycle stage: early G1 (4.5 h after nocodazole release)
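Wherever melting temperature (median over replicates), in situ is given: HeLa Kyoto cells synchronized by double thymidine or nocodazole block, proteins quantified by TMT10plex mass spectrometry, three independent biological replicates.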
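Wherever solubility change mitosis vs G1/S (difference of NP-40 vs SDS log2 ratios) is given: synchronized HeLa Kyoto cells (double thymidine block for G1/S, nocodazole release for mitosis), protein amounts in NP-40 versus SDS lysates quantified by mass spectrometry, three biological replicates.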
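Wherever solubility in G1/S (NP-40 vs SDS abundance) is given: HeLa Kyoto cells arrested at G1/S by double thymidine block, proteins quantified by TMT10plex mass spectrometry in mild NP-40 versus SDS extracts, three biological replicates.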
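Wherever thermal stability score vs G1/S (z-score of summed log2 fold changes over temperatures) is given: synchronized HeLa Kyoto cells, proteins quantified by TMT10plex mass spectrometry, three biological replicates, mitosis taken 0.5 h after nocodazole release, G1/S directly after double thymidine block.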

Row | Sequence | solubility change mitosis (log2) (HeLa Kyoto [1]) | solubility in G1/S (log2) (HeLa Kyoto [2]) | melting temperature (HeLa Kyoto [3]; cell cycle stage: G1/S) | melting temperature (HeLa Kyoto [3]; cell cycle stage: mitosis) | thermal stability score (HeLa Kyoto [4]; [5]) | thermal stability score (HeLa Kyoto [4]; cell cycle stage: mitosis)
1 | MVGVKPVGSDPDFQPELSGAGSRLAVVKFTMRGCGPCLRIAPAFSSMSNKYPQAVFLEVDVHQCQGTAATNNISATPTFLFFRNKVRIDQYQGADAVGLEEKIKQHLENDPGSNEDTDIPKGYMDLMPFINKAGCECLNESDEHGFDNCLRKDTTFLESDCDEQLLITVAFNQPVKLYSMKFQGPDNGQGPKYVKIFINLPRSMDFEEAERSEPTQALELTEDDIKEDGIVPLRYVKFQNVNSVTIFVQSNQGEEETTRISYFTFIGTPVQATNMNDFKRVVGKKGESH [TXNL1] | -0.112 | 0.258 | 50.1 °C | 50.2 °C | -0.465 | -0.0973
2 | MVGYDPKPDGRNNTKFQVAVAGSVSGLVTRALISPFDVIKIRFQLQHERLSRSDPSAKYHGILQASRQILQEEGPTAFWKGHVPAQILSIGYGAVQFLSFEMLTELVHRGSVYDAREFSVHFVCGGLAACMATLTVHPVDVLRTRFAAQGEPKVYNTLRHAVGTMYRSEGPQVFYKGLAPTLIAIFPYAGLQFSCYSSLKHLYKWAIPAEGKKNENLQNLLCGSGAGVISKTLTYPLDLFKKRLQVGGFEHARAAFGQVRRYKGLMDCAKQVLQKEGALGFFKGLSPSLLKAALSTGFMFFSYEFFCNVFHCMNRTASQR [SLC25A19] | -0.0971 | -0.155 | 56.4 °C | 55.6 °C | -0.746 | -1.27
3 | MVHQVLYRALVSTKWLAESIRTGKLGPGLRVLDASWYSPGTREARKEYLERHVPGASFFDIEECRDTASPYEMMLPSEAGFAEYVGRLGISNHTHVVVYDGEHLGSFYAPRVWWMFRVFGHRTVSVLNGGFRNWLKEGHPVTSEPSRPEPAVFKATLDRSLLKTYEQVLENLESKRFQLVDSRSQGRFLGTEPEPDAVGLDSGHIRGAVNMPFMDFLTEDGFEKGPEELRALFQTKKVDLSQPLIATCRKGVTACHVALAAYLCGKPDVAVYDGSWSEWFRRAPPESRVSQGKSEKA [TST] | -0.0824 | 0.187 | 48.3 °C | 49.3 °C | 5.41 | 3.98
4 | MVISESMDILFRIRGGLDLAFQLATPNEIFLKKALKHVLSDLSTKLSSNALVFRICHSSVYIWPSSDINTIPGELTDASACKNILRFIQFEPEEDIKRKFMRKKDKKLSDMHQIVNIDLMLEMSTSLAAVTPIIERESGGHHYVNMTLPVDAVISVAPEETWGKVRKLLVDAIHNQLTDMEKCILKYMKGTSIVVPEPLHFLLPGKKNLVTISYPSGIPDGQLQAYRKELHDLFNLPHDRPYFKRSNAYHFPDEPYKDGYIRNPHTYLNPPNMETGMIYVVQGIYGYHHYMQDRIDDNGWGCAYRSLQTICSWFKHQGYTERSIPTHREIQQALVDAGDKPATFVGSRQWIGSIEVQLVLNQLIGITSKILFVSQGSEIASQGRELANHFQSEGTPVMIGGGVLAHTILGVAWNEITGQIKFLILDPHYTGAEDLQVILEKGWCGWKGPDFWNKDAYYNLCLPQRPNMI [UFSP2] | -0.212 | -0.0543 | 51.2 °C | 51 °C | -0.738 | -0.716
5 | MVKLTAELIEQAAQYTNAVRDRELDLRGYKIPVIENLGATLDQFDAIDFSDNEIRKLDGFPLLRRLKTLLVNNNRICRIGEGLDQALPCLTELILTNNSLVELGDLDPLASLKSLTYLSILRNPVTNKKHYRLYVIYKVPQVRVLDFQKVKLKERQEAEKMFKGKRGAQLAKDIARRSKTFNPGAGLPTDKKKGGPSPGDVEAIKNAIANASTLAEVERLKGLLQSGQIPGRERRSGPTDDGEEEMEEDTVTNGS [SNRPA1] | 0.21 | 0.281 | 54 °C | 54.2 °C | 0.145 | -1.77
6 | MVKQIESKTAFQEALDAAGDKLVVVDFSATWCGPCKMIKPFFHSLSEKYSNVIFLEVDVDDCQDVASECEVKCMPTFQFFKKGQKVGEFSGANKEKLEATINELV [TXN] | -0.04 | 0.255 | 57.3 °C | 58.1 °C | -0.802 | -2.72
7 | MVLAELYVSDREGSDATGDGTKEKPFKTGLKALMTVGKEPFPTIYVDSQKENERWNVISKSQLKNIKKMWHREQMKSESREKKEAEDSLRREKNLEEAKKITIKNDPSLPEPKCVKIGALEGYRGQRVKVFGWVHRLRRQGKNLMFLVLRDGTGYLQCVLADELCQCYNGVLLSTESSVAVYGMLNLTPKGKQAPGGHELSCDFWELIGLAPAGGADNLINEESDVDVQLNNRHMMIRGENMSKILKARSMVTRCFRDHFFDRGYYEVTPPTLVQTQVEGGATLFKLDYFGEEAFLTQSSQLYLETCLPALGDVFCIAQSYRAEQSRTRRHLAEYTHVEAECPFLTFDDLLNRLEDLVCDVVDRILKSPAGSIVHELNPNFQPPKRPFKRMNYSDAIVWLKEHDVKKEDGTFYEFGEDIPEAPERLMTDTINEPILLCRFPVEIKSFYMQRCPEDSRLTESVDVLMPNVGEIVGGSMRIFDSEEILAGYKREGIDPTPYYWYTDQRKYGTCPHGGYGLGLERFLTWILNRYHIRDVCLYPRFVQRCTP [NARS] | -0.124 | -0.0613 | 52.6 °C | 53.1 °C | 3.39 | 4
8 | MVLCPVIGKLLHKRVVLASASPRRQEILSNAGLRFEVVPSKFKEKLDKASFATPYGYAMETAKQKALEVANRLYQKDLRAPDVVIGADTIVTVGGLILEKPVDKQDAYRMLSRLSGREHSVFTGVAIVHCSSKDHQLDTRVSEFYEETKVKFSELSEELLWEYVHSGEPMDKAGGYGIQALGGMLVESVHGDFLNVVGFPLNHFCKQLVKLYYPPRPEDLRRSVKHDSIPAADTFEDLSDVEGGGSEPTQRDAGSRDEKAEAGEAGQATAEAECHRTRETLPPFPTRLLELIEGFMLSKGLLTACKLKVFDLLKDEAPQKAADIASKVDASACGMERLLDICAAMGLLEKTEQGYSNTETANVYLASDGEYSLHGFIMHNNDLTWNLFTYLEFAIREGTNQHHRALGKKAEDLFQDAYYQSPETRLRFMRAMHGMTKLTACQVATAFNLSRFSSACDVGGCTGALARELAREYPRMQVTVFDLPDIIELAAHFQPPGPQAVQIHFAAGDFFRDPLPSAELYVLCRILHDWPDDKVHKLLSRVAESCKPGAGLLLVETLLDEEKRVAQRALMQSLNMLVQTEGKERSLGEYQCLLELHGFHQVQVVHLGGVLDAILATKVAP [ASMTL] | -0.178 | -0.0739 | 51.6 °C | 50.8 °C | 0.0527 | 0.533
9 | MVMAAKKGPGPGGGVSGGKAEAEAASEVWCRRVRELGGCSQAGNRHCFECAQRGVTYVDITVGSFVCTTCSGLLRGLNPPHRVKSISMTTFTEPEVVFLQSRGNEVCRKIWLGLFDARTSLVPDSRDPQKVKEFLQEKYEKKRWYVPPDQVKGPTYTKGSASTPVQGSIPEGKPLRTLLGDPAPSLSVAASTSSQPVSQSHARTSQARSTQPPPHSSVKKASTDLLADIGGDPFAAPQMAPAFAAFPAFGGQTPSQGGFANFDAFSSGPSSSVFGSLPPAGQASFQAQPTPAGSSQGTPFGATPLAPASQPNSLADVGSFLGPGVPAAGVPSSLFGMAGQVPPLQSVTMGGGGGSSTGLAFGAFTNPFTAPAAQSPLPSTNPFQPNGLAPGPGFGMSSAGPGFPQAVPPTGAFASSFPAPLFPPQTPLVQQQNGSSFGDLGSAKLGQRPLSQPAGISTNPFMTGPSSSPFASKPPTTNPFL [AGFG2] | -0.0538 | 0.247 | 46.6 °C | 47.9 °C | 0.518 | 0.826
10 | MVPALRYLVGACGRARGLFAGGSPGACGFASGRPRPLCGGSRSASTSSFDIVIVGGGIVGLASARALILRHPSLSIGVLEKEKDLAVHQTGHNSGVIHSGIYYKPESLKAKLCVQGAALLYEYCQQKGISYKQCGKLIVAVEQEEIPRLQALYEKGLQNGVPGLRLIQQEDIKKKEPYCRGLMAIDCPHTGIVDYRQVALSFAQDFQEAGGSVLTNFEVKGIEMAKESPSRSIDGMQYPIVIKNTKGEEIRCQYVVTCAGLYSDRISELSGCTPDPRIVPFRGDYLLLKPEKCYLVKGNIYPVPDSRFPFLGVHFTPRMDGSIWLGPNAVLAFKREGYRPFDFSATDVMDIIINSGLIKLASQNFSYGVTEMYKACFLGATVKYLQKFIPEITISDILRGPAGVRAQALDRDGNLVEDFVFDAGVGDIGNRILHVRNAPSPAATSSIAISGMIADEVQQRFEL [L2HGDH] | -0.123 | 0.0471 | 53.9 °C | 53.6 °C | 0.996 | 0.751
11 | MVQAWYMDDAPGDPRQPHRPDPGRPVGLEQLRRLGVLYWKLDADKYENDPELEKIRRERNYSWMDIITICKDKLPNYEEKIKMFYEEHLHLDDEIRYILDGSGYFDVRDKEDQWIRIFMEKGDMVTLPAGIYHRFTVDEKNYTKAMRLFVGEPVWTAYNRPADHFEARGQYVKFLAQTA [ADI1] | -0.0474 | 0.18 | 51.1 °C | 51.1 °C | -0.911 | -0.735
